{
  "source": "paper PMC8555655",
  "target": "PlyCB R66E mutant (streptococcal bacteriophage (C1)) (UniProt Q7Y3F3)",
  "test": "SEC",
  "data": [
    {"substance": "PlyCB R66E mutant (from UniProt Q7Y3F3 1-72) (natural protein)", "values": [
      {"measurement": "stoichiometry N", "result": 8}
    ]}
  ]
}
